Experimental data: patent publication US20050048070A1 (published 2005)

What was measured:
[1] = target: T1, N-terminally truncated K8 protein where the first 22 amino acids were missing (from colon cancer tissue) (human, UniProt P05787 24-483); assay: Western blot of cytokeratin bands from colon cancer tissue, bands identified by N-terminal sequencing (drawn table)
T1 construct: also called K8 starting at residue 23
T1 chain: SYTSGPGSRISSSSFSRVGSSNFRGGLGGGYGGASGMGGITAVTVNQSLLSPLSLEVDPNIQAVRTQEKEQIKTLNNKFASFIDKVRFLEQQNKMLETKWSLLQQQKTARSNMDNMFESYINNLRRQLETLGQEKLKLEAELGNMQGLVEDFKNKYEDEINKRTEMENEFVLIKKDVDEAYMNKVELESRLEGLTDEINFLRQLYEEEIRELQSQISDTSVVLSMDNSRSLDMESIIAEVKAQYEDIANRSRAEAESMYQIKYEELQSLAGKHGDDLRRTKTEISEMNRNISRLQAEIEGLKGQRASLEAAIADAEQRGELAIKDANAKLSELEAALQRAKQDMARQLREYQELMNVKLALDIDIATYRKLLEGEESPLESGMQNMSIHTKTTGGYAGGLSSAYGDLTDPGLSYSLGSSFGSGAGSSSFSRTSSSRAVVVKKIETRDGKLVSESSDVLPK

[2] = target: T2, recombinant intact K18 (GST fusion protein) (human, UniProt P05783 2-430); assay: Western blot of SDS-PAGE-separated K18 GST fusion proteins, stained with COU-1 alone
T2 construct: Alone, not complexed with K8; also called full length K18; cytokeratin 18; not shown: glutathione S-transferase (GST) fusion partner, modified pGEX-2T vector
T2 sequence: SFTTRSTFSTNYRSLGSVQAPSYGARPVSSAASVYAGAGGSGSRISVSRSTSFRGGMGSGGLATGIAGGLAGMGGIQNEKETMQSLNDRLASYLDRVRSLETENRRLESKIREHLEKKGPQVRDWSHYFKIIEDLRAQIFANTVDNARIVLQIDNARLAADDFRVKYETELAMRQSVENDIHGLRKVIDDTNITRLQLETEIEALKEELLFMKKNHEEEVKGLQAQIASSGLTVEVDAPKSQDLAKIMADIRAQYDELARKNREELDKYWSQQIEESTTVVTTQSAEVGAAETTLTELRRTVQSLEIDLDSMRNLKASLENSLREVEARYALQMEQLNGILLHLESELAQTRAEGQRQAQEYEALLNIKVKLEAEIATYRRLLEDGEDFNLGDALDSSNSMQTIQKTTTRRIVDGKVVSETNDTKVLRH

[3] = target: T3, K18(1-356) GST fusion protein (human, UniProt P05783 2-357); assay: as above
T3 construct: Alone, not complexed; not shown: glutathione S-transferase (GST) fusion partner, modified pGEX-2T vector
T3 sequence: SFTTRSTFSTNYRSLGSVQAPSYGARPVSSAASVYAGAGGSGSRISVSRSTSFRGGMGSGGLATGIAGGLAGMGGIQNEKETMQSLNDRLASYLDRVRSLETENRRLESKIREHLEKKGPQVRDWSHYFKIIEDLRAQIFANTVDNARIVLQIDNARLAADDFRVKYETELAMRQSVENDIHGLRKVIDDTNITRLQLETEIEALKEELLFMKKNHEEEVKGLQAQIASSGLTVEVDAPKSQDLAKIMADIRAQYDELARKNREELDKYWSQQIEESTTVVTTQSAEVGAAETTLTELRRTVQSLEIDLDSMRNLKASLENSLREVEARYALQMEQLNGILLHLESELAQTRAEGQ

[4] = target: T4, K18(1-213) GST fusion protein (human, UniProt P05783 2-214); assay: as above
T4 construct: Alone, not complexed; not shown: glutathione S-transferase (GST) fusion partner, modified pGEX-2T vector
T4 sequence: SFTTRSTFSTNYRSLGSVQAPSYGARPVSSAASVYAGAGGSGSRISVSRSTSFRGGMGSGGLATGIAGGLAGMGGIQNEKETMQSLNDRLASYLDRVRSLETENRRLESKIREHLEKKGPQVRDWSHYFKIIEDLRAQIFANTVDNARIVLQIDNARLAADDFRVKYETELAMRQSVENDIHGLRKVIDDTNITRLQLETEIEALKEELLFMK

[5] = target: T5, K18(1-187) GST fusion protein (human, UniProt P05783 2-188); assay: as above
T5 construct: Alone, not complexed; not shown: glutathione S-transferase (GST) fusion partner, modified pGEX-2T vector
T5 sequence: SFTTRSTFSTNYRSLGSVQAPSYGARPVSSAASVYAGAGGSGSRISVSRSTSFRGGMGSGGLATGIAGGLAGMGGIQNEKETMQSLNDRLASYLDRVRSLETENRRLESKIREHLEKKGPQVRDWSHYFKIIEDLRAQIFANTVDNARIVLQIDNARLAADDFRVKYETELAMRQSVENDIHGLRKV

[6] = target: T6, K18(1-312) GST fusion protein (human, UniProt P05783 2-313); assay: as above
T6 construct: Alone, not complexed; not shown: glutathione S-transferase (GST) fusion partner, modified pGEX-2T vector
T6 sequence: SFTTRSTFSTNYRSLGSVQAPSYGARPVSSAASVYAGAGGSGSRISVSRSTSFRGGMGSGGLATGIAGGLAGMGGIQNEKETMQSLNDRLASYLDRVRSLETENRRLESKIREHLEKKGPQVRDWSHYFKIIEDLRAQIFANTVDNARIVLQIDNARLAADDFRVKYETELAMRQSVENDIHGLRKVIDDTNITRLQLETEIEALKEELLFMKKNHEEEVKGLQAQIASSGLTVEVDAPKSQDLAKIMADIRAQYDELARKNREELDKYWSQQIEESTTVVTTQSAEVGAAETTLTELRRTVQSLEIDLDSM

[7] = target: T7, K18(1-124) GST fusion protein (human, UniProt P05783 2-125); assay: as above
T7 construct: Alone, not complexed; not shown: glutathione S-transferase (GST) fusion partner, modified pGEX-2T vector

B1: human monoclonal IgM antibody COU-1 (antibody, V domains shown)
VH: GAEVKKPGASVKVSCKASDYTFSSYYMHWVRQAPGQGLEWMGIINPSGGSTSYAQKFQGRVTMTRDTSTNTVYMELSSLRSEDTAVYYCARDQVVVAATLSNYGMDVWGQGTTVTVSS
VL: ELTQSPGTLSLSPGERATLSCRASQSVSSSYLAWYQQKPGQAPRLLIYDASNRATGIPARFSGSGSGTDFTLTISSLEPEDFAVYYCQQGTNWGIAFGQGTRLDIKR
notes: Human IgM with kappa light chain, secreted by hybridoma B9165 (ECACC 87040201), purified from culture supernatant; also called HMab COU-1; HuMab COU-1
B1: no binding (tested: 5 µg/ml COU-1 (P-0279)) [1]; no binding (tested: 5 µg/ml COU-1 (P-0279)) [2]; no binding (tested: 5 µg/ml COU-1 (P-0279)) [3]. B1: no binding (tested: 5 µg/ml COU-1 (P-0279)) [4]; no binding (tested: 5 µg/ml COU-1 (P-0279)) [5]; no binding (tested: 5 µg/ml COU-1 (P-0279)) [6]. B1: no binding (tested: 5 µg/ml COU-1 (P-0279)) [7].
